Assay results from PMC10864337.

Key:
[1] = target: Drp1 Y493A (isoform 1) (human) (UniProt O00429)
[2] = target: Drp1 Y493A (isoform 1) (human) (UniProt O00429); test: SEC-MALS; 5 µM Drp1 injected onto a Superose 6 10/300GL column

- GTPase activity (malachite green) with cardiolipin-containing nanotubes; not stimulated [1]: 1.2 min⁻¹
- stoichiometry N [2]: 2
Substance: Drp1 Y493A (isoform 1) (from UniProt O00429-1 1-736) (natural protein)
